# From US20210198347A1 (Chugai, published 2021)
# T1: Native human C1r enzyme (Comptech A102) (human, UniProt P00736 18-705)
# T1 construct: mature
# T1 sequence (looked up): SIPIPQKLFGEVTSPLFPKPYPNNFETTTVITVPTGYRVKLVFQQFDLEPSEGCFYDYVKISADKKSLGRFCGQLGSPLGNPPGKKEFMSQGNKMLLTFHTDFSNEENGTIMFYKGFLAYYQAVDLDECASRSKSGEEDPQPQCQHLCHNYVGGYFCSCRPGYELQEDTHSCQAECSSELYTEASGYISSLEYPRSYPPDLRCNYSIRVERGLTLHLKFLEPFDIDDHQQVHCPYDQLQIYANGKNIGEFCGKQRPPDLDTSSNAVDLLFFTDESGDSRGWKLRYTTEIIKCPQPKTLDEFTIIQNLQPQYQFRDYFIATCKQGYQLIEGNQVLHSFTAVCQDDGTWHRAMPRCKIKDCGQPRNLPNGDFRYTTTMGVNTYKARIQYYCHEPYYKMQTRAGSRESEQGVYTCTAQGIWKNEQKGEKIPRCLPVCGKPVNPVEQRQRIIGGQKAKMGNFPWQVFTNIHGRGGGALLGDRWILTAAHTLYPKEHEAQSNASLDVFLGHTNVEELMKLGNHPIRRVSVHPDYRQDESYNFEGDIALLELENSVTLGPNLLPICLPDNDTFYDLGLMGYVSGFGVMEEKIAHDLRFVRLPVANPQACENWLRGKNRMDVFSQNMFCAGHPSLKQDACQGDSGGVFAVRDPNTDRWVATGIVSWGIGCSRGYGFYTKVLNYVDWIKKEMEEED
# Target: T1, Native human C1r enzyme (Comptech A102)
# Assay: SPR (BIACORE T200, 37 degrees C, pH 7.4), antibody captured by protein A/G, C1r 25 nM as a dimer
# Procedure: The binding specificities of human C1r CUB1-EGF-CUB2 binders are determined at 37 degrees C. using BIACORE® T200 instrument (GE Healthcare). Recombinant Protein A/G (Pierce) is immobilized onto all flow cells of a CM4 sensor chip using an amine coupling kit (GE Healthcare). Antibodies and analytes are prepared in 7(+) buffer (20 mM ACES, 150 mM NaCl, 1.2 mM CaCl₂, 0.05% Tween 20, 1 mg/mL BSA (IgG-free), 1 mg/mL CMD, 0.005% NaN₃, pH 7.4). Each antibody is captured onto the sensor surface by protein A/G. Antibody capture levels are aimed at 100 resonance unit (RU). Native human C1r enzyme (Comptech A102) (at 25 nM as a dimer) or recombinant human C1r CCP1-CCP2-SP-FLAG (at 50 nM as a monomer) is injected, followed by dissociation. Sensor surface is regenerated each cycle with 10 mM Glycine-HCl pH 1.5. It may be determined that C1r CUB1-EGF-CUB2 binders bound to the native human C1r enzyme , but not recombinant human C1r CCP1-CCP2-SP-FLAG, which is a truncated protein lacking the CUB1-EGF-CUB2 domain of C1r.
row,Binder,binding result
1,"COR0208cc-SG1148 (antibody, human IgG1, kappa, V domains shown, Anti-C1r antibody; also called COR208; COR208cc(-SG1148)) VH: QSVEESGGRLVTPGTPLTLTCTVSGFSLSNYYMNWVRQAPGKGLEWIGIIASDDNTWYASWAKGRFTISKTSTTVDLKITSPTTEDTATYFCARDLDVGYGSGWYDLWGQGTLVTVSS VL: AAVLTQTPSPVSVAVGGTVTINCQASQSVYNNNYLAWYQQEPGHRPKLLIYRASKLASGVPSRFSGSGSGTQFTLTISGVQCDDAATYYCLGGYDDFTDTTFGGGTKVEIKR",binds
2,"COR0067ff-SG1148 (antibody, human IgG1, kappa, V domains shown, Anti-C1r antibody) VH: QSLEESGGGLVQPEGSLTLTCKASGIDFSSNAMCWVRQAPGKGLEWIGCIYTGSTTIWYASWAKGRFTISKTSSTTVTLQLNSLTVADTATYFCARRDSSSGYAFKLWGPGTLVTVSS VL: DIVMTQTPSSVSAAVGGTVTIKCQASENIYSNLAWYQQKSGQPPNLLIYGASTLESGVPSRFKGSGSGTEFTLTISDLECADAAIYYCQCTYDDSSTFGGGTKVEIKR",binds
3,"COR0338gg-SG1148 (antibody, human IgG1, kappa, V domains shown, Anti-C1r antibody) VH: QSLEESGGGLVQPEGSLTLTCKASGIDFSSNAMCWVRQAPGKGLEWIACIYTGSTTIWYATWAKGRFTISKTSSTTVTLQLNSLTVADTATYFCARRASSSGYAFKLWGPGTLVTVSS VL: DVVMTQTPFSVSAAVGGTVTIKCQASESIYSNLAWYQQKPGQPPNLLIYGASTLESGVPSRFKGSGSGTEFTLTISDLECDDAAIYYCQCTYDDSSTFGGGTKVEIKR",binds
4,"COR0212bb-SG1148 (antibody, human IgG1, kappa, V domains shown, Anti-C1r antibody) VH: QEQLKESGGGLVTPGGTLTLTCTASGFSLSSYDMSWVRQAPGKGLDWIGIINTGGSAYYATWAKGRFTISKTSTTVDLKITSPTTEDTATYFCGRKINDAFDPWGPGTLVTVSS VL: AQVLTQTPFSVSAAVGGTVTINCQASESISSNLAWYQQKPGQPPKLLIYDASDLASGVPSRFKGSGSGKQFTLTISGVQCDDAATYFCQHGWIYDTIDSNCFGGGTKVEIKR",binds
5,"COR0205gg-SG1148 (antibody, human IgG1, kappa, V domains shown, Anti-C1r antibody; also called COR205gg(-SG1148)) VH: QSLEESGGGLFKPTDTLTLTCTVSGFSLSSNAMSWVRQAPGKGLEYIGIIYLTGVTYYATWAKGRFTISKTSTTVDLKITSPTTEDTATYFCAGGEFSLWGPGTLVTVSS VL: DIIMTQTPASVEAAVGGTVTIKCQASQGIDNYFSWHQQKPGQPPKLLIYKASTLASGVSSRFKGSGSGTEFTLTISDLECDDAATYYCQCTYGYNINDNYGNAFGGGTKVEIKR",binds
6,"COR0058bb-SG1148 (antibody, human IgG1, kappa, V domains shown, Anti-C1r antibody) VH: QSVEESGGRLVTPGTPLTLTCTASGFDISNYNMQWVRQSPGKGLEWIGIIWSGGYTDYANWAKGRFTISATSTTVDLKSTSPTTEDTATYFCARQGANFGDYTVDLWGPGTLVTVSS VL: AYDMTQTPASVEVAVGGTVTIKCQASQSIRSSLAWYQQKPGQRPKLLIYRASTLASGVSSRFKGSGSGTQFTLTISGVECADAATYYCQQGYSNINVDNTFGGGTKVEIKR",binds
7,"COR0011bb-SG1148 (antibody, human IgG1, kappa, V domains shown, Anti-C1r antibody) VH: QSLEESGGRLVTPGTPLTLTCTASGFTFSGYYMCWVRQTPGKGLEYIGIIASSGNTYYANWAKGRFTISKTSSTTVDLKMTSLTTEDTATYFCAKPESDYVNGMGLWGPGTLVTVSS VL: DIVMTQTPASVSDPVGGTVTIKCQASQSIYNLLSWYQQKPGQRPKLLIYDASKLASGVPSRFKGSGYGTDFTLTISDLGCADAATYYCQSNYGYSRTDDTFFYGFGGGTKVEIKR",binds
8,"COR0278bb-SG1148 (antibody, human IgG1, kappa, V domains shown, Anti-C1r antibody) VH: QSLEESGGRLVTPGTPLTLTCTASGFSLSSYDMTWVRQAPGKGLEWIGIIYTLGSAYYASWAKGRFTISRTSTTVDLKMTSPTTEDTATYFCARGGDSYGAVDTAFDLWGPGTLVTVSS VL: AQVLTQTPSPVSAAVGGTVTISCQSSPSVYSNYLSWYQQKPGQPPKLLIYRASRLASGVPSRFKGSGSGTQFTLTISEVQCDDAATYYCQGYFGNGINAFGGGTKVEIKR",binds
